# “Also recorded” adds a separate entry of the source.
# How the values were obtained:
# [1] = test system: Uke-1 cells; assay: ADCC activity in vitro (Calcein release, NK3.3 effector cells); type: cell-based; conditions: unconjugated IgG1, effector to target ratio 20 to 1
# Protocol: The ability of the unconjugated anti-cKIT antibodies (NEG085, 20376) to mediate antibody dependent cellular cytotoxicity was determined versus Uke-1 cells (target cells; generously provided by Professor Walter Fiedler, University Hospital Eppendorf, Hamburg, Germany) in co-incubation with NK3.3 cells (killer cells or effector cells; kindly provided by Jacky Kornbluth from Saint Louis University). […] In order to calculate the antibody specific lysis of the target cells, a parallel incubation of target cells only without antibody or effector cells served as a baseline and negative control, whereas the positive control or maximal lysis or hundred percent specific lysis was determined by lysis of target cells only with a 1% Triton-X 100 solution. […] Following a co-incubation of target and effector cells, the microtiterplate was centrifuged and an aliquot of the supernatant fluid was transferred to another microtiterplate (96 well, flat-bottomed, black with clear bottom; (Corning Costar, catalog #3904, Tewksbury, MA) and the concentration of free Calcein in solution was determined with a fluorescence counter (Victor 3 ® multilabel counter, Perkin Elmer, Waltham, MA).
# [2] = test system: primary human mast cells; assay: mast cell apoptosis (Caspase-Glo 3/7); type: cell-based; conditions: 0.05-100 nM, 1.6 nM rhSCF, 48 h
# Protocol: Primary human mast cells were cultured from peripheral human blood according to the methods described by Saito et al., Nature Protocols 2006; 1(4):2178-2183. Mast cells, which had been in liquid culture for a minimum of one week, were incubated with increasing concentrations (0.05-100 nM) of the anti-human cKIT Abs, NEG085 and 20376, or an isotype control IgG, in the presence of 1.6 nM rhSCF (Genscript, Cat #Z00400, Piscataway, NJ), for 48 h at 37° C. before the addition of the Caspase-Glo® 3/7 reagent (Promega, Cat #G8093, Madison, WI) to measure apoptosis. Following 30 min incubation at room temperature, luminescence was recorded on the BioTek® Synergy plate reader (BioTek, Winooski, VT).
molecule,measurement,setting,value
"NEG085: anti-cKIT antibody of Table 3, VH SEQ ID NO 82, VL SEQ ID NO 91 (antibody, listed as Homo sapiens, V domains shown) VH: EVQLVESGGGLVQPGGSLRLSCAASGFAFSGYYMAWVRQAPGKGLEWVANINYPGSSTYYLDSVKGRFTISRDNAKNSLYLQMNSLRAEDTAVYYCARGDYYGTTYWYFDVWGQGTTVTVSS VL: DIQMTQSPSSLSASVGDRVTITCRASQSISSYLNWYQQKPGKAPKLLIYYTSRLQSGVPSRFSGSGSGTDFTLTISSLQPEDFATYYCQQGRRLWSFGGGTKVEIK",ADCC killing of target cells,[1],do not induce ADCC; also recorded: not able to induce ADCC
same,apoptosis of primary human mast cells,[2],do not mediate primary human mast cell apoptosis; also recorded: do not lead to apoptosis

# Reference: patent US11833215B2, “CKIT antibody drug conjugates” (Novartis AG, priority 2014, dated 2023)
